# In the nanobody polyreactivity screen of Harvey et al. (2022):
# Test: yeast display, Sf9 membrane polyspecificity reagent, FACS + sequencing; frameworks hold sequencing errors
# Outline: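 After 36–48 hours of galactose induction, yeast (Saccharomyces cerevisiae BJ5465) displaying a synthetic nanobody library were stained at 4 °C for 1 hour with 10% biotinylated, detergent-solubilized Sf9 membrane reagent. Streptavidin microbeads enriched the stained cells before FACS sorting into low and high (top ~1%) gates on anti-HA and streptavidin fluorescence. Each clone's polyreactivity label reflects its gate of origin.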
row,Sequence,polyreactivity (PSR sort gate)
1,QVQLVESGGGLVQAGGSLRISCADSGSIFTYNAMGWYRQAPGKERELVAAITSSSGSSTYADSVKGRFTISRDNAKYTVYLQMNSLKPEDTAVYYCAAPILSFPSPYVQYDYWGQGTQVTVSS,low polyreactivity
2,QVQLVESGGGLVQAGGSLRISCAPSGIIFYQNTMGWYRQAPGKERELVATITKRGGSSYYADSVKGRFTISRDNAKNTVYLQMNSLKPEDTAVYYCNAAKYAASYIGYGYWGQGTQVTVSS,high polyreactivity
3,QVQLVESGGGLVQAGGSLRISCAPSGRIFNINEMGWYRPARGKEREWVARITTGGRTNYADSVKGRFTISRDNAKNTFYLQMNSLKPADTAVYYCAARTYGQLGDYWGQGTQVTVSS,high polyreactivity
4,QVQLVESGGGLVQAGGSLRISCASSGFTFSQYAMGWYRQAPGKERELVAAISSSGGRTYYADSVKGRFTISRDNAKNTVYLQMKSLKPEDTAFFYCAAPGAQGLGLRGAGLDYWGQGTQVTVSS,high polyreactivity
5,QVQLVESGGGLVQAGGSLRISCDASGSTFVANAMRSYREAPGKERELLAAISRSGGRTYYADSVKGRFTISRDNAKYTVYFQMNSLKPEDTAVYYCAADGYRSPVYANWGMGYWGQGSQVTVSS,high polyreactivity
6,QVQLVESGGGLVQAGGSLRISCDASGYIFGWNSMGWYRQAPGKERELVAAISSSGGNTYYADSVKGRFTISRDNAKNTVYLQMNSLKPEDTAVYYCARSYPYRYDYWGQGTQVTVSS,low polyreactivity
7,QVQLVESGGGLVQAGGSLRISSAASGRIFTPYVMGWYRQAPGKERELVADINLSGDSTSYADSVKGRFTITRDNAKNTVYLQMNSLKPEDTAVYYCNADSYIYVGNDQYDYWGQGTQVTVSS,low polyreactivity
8,QVQLVESGGGLVQAGGSLRISSAASGRTFFTNAKGWYRQAPGKERELVAVITYRGDSTYADSVKGRFTISRDNAKNTVYLQMNSLKPEDTAVYYCNAEFRGGRWFTYDYWGHGTQVTVSS,low polyreactivity
9,QVQLVESGGGLVQAGGSLRISSAAYGRIIYGYAMGWYRQAPGKERELVAAITWRGTSTYYADSVKGRFTISRDNAKNTVYLQMNCLKPEDTAVYYCNAVRSLAYWGQGTQVTVSS,high polyreactivity
10,QVQLVESGGGLVQAGGSLRITCAASGSIFGTNAMGWYRQAPGKERELVAAIDGGSTTYYADCVKGRFTISRDNAKNTVYLQMNSLKPEDTAVYYCAADGTRYLNYEGYAGYEYWGQGTQETVSS,low polyreactivity
11,QVQLVESGGGLVQAGGSLRITCAASGSIFYSNVMGWSRPAPGKERELVARITDAGSTNYADSVKGRFTISRDYAKNTVYLQMYSLKPEDTAVYYCIARLVIYTYDYWGQGTQVTVSS,low polyreactivity
12,QVQLVESGGGLVQAGGSLRITCAASGSNFTYNAMGRYREAPGKERELVAAIDWDGDTTYYADSVKGRFTISRDNAKNTVYLQMNSLKPEDTAVYYCAAEFYSLGKAIYEYWGQGTQVTLSS,high polyreactivity
13,QVQLVESGGGLVQAGGSLRLAVLPPDLPSTLNDMGWYRQAPGKERELVAAITRGGSTNYADSLKGRFTISRDNAKNTVYLQMNSLKPEDSAVYYCAAPYAGWGDGGDYWGQGTQVTVSS,low polyreactivity
14,QVQLVESGGGLVQAGGSLRLAVLPPDLPSTLNDMGWYRQAPGKERELVAAITRGGSTNYADSVKGRFTISRDNAKNTVYLQMNSLKPEDTAVYYCAAPYAGWRDGGDYWGQGTQVTVSS,low polyreactivity
15,QVQLVESGGGLVQAGGSLRLCCAASGIIFYSYAMGWYRQAPGKEREFVAAITNSDGSTYYADSVKGRFTISRDNAKNTVYLQMNSVKPEDTAVYMFYWGQGTQVTVSS,low polyreactivity
16,QVQLVESGGGLVQAGGSLRLCCAASGRIFDYNAMGLYRQAPGKERELVAAINSGGSTYADSVKGRFTISRDNAKNTVYLQMNSLKPEDTAVYYCANSLGQTDWEYDSWGQGTQVTVSS,low polyreactivity
17,QVQLVESGGGLVQAGGSLRLCCAASGSIFLLNAMGWYRQAPGKERELVAAISWGGGSTYYADSVKGRFTISRDNAKNTVYLQMNSLKPEDTAVYYCNASVTLGLEVDYSGQGTQVTVSS,low polyreactivity
18,QVQLVESGGGLVQAGGSLRLICAAAGRIVSYYTMGWYRQAPGKERELVAAISSGGSTNYADSVKGRFTISRDNAKNTVYLQMNSLKPEDTAVYYCAVRCGRRNYDRPAFGYWGQGTQVTVSS,high polyreactivity
19,QVQLVESGGGLVQAGGSLRLICAASGFIFGHYAMGWYRQAPGNERELVAAISTGGDGTYYADSVKGRFTISRDNAKNTVYLQMNSLKPEDTAVYYCAVRHRASGILYYYWGQATQVTVSS,low polyreactivity
20,QVQLVESGGGLVQAGGSLRLICAASGFIFGNYAMGWYRQAPGKERELVATITWRGGSTYYADSVKGRFTISRDNAKNTVYLQMNSLKPEDTAVYYCARPYASYRSFYYYGYWGQGTQVTVSS,high polyreactivity
21,QVQLVESGGGLVQAGGSLRLICAASGFIFGSYAMGWYRQAPAKERELVAAINYDGGSTYYADSVKGRFTISRDNAKNTVYLQMNSMKPEDTAVYYCAADLYYTHMDYWGQGTQVTVSS,low polyreactivity
22,QVQLVESGGGLVQAGGSLRLICAASGFIFIGYAMGWYRQARGKERELVAAISWRGGTYYADSVKGRFTISRDNAKNSVYLQMNSLKPEDTAVYYCAARTRNAVRSGSGKYDYCGQGTQVTVSS,low polyreactivity

row,Sequence,polyreactivity (PSR sort gate)
1,QVQLVESGGGLVQAGGSLRLICAASGFIFKWNAMGWYRQAPGKERELVAAITSGGGTYYADSVKGRFTISRDNAKNTVYLQMNSLKPEDTAVYYCAALGRYWPARRFDYWGQGTQVTVSS,high polyreactivity
2,QVQLVESGGGLVQAGGSLRLICAASGFIFSAYAMGWYRQAPGKERELVAAISYSGGTTYYADSVKGRFTISRDNAKNTVYLQMNSLKPEDTAVYYCAAGVGYWGQGTQVTVSS,high polyreactivity
3,QVQLVESGGGLVQAGGSLRLICAASGFIFSTYAMGWYRQAPGKERELVAAISWSGGRTNYADSVKGRFTISRDNAKNTVYLQMNSLKPEDTAVYYCARYGHSGRQYKYDYWGQGTQVTVSS,high polyreactivity
4,QVQLVESGGGLVQAGGSLRLICAASGFIFWDNAMGWYRQAPGKERELVAAISKSGTRTYYADSVKGRFTISRDNEKNTVYLQMNSLKPEDTAVYYCAAEGSGYEYYYWGQGTQVTVSS,high polyreactivity
5,QVQLVESGGGLVQAGGSLRLICAASGFSFRYYDMGWYRQAPGKERELVAAISRSGGRTYYADSVKGRFTISRDNAKNSVYLQMNSLNPEDTAVYYCNAVYNVVLSRVIYARGYWGQGTQVTVSS,high polyreactivity
6,QVQLVESGGGLVQAGGSLRLICAASGFTFASYGMGWYRQARGKERELVAAISWSGGRTYYADSVKGRFTISRDNATNTVYLQMNSLKPEDSAVYYSNAYWNPASKYDYWGQGTQVTVSS,high polyreactivity
7,QVQLVESGGGLVQAGGSLRLICAASGFTFAYYAMGWYRQATGKERELVAAISSGGGTYYADSVKGRFTISRDNAKNTVYLQMNSLKPEDTAVYYCNARYYFVFGRYNYWGQGTQVTVSS,high polyreactivity
8,QVQLVESGGGLVQAGGSLRLICAASGFTFGYNDMGWYRQAPGKERELVATITRSAGRTYYADSVKGRFTISRDNAKNTVYLQMNSLKPEDTAVYYCASSYWDTEPGYREYDYWGQGTQVTVSS,low polyreactivity
9,QVQLVESGGGLVQAGGSLRLICAASGFTFHSYAMGWYRQAPGKERELVAAITTDGSTYYADSVKGRFTISRDNAKNTVYLQMTSLKPEDTAVYYCAAGKAYWYARKPYARYYYWGQGTQVTVSS,high polyreactivity
10,QVQLVESGGGLVQAGGSLRLICAASGFTFRNNAMGWYRQAPGKERELVARITFRGGSTYYADSVKGSFTISRDNAKNTVYLQMNSLNPEHTAVYYCAVDWLSVTSTIKFVMDYWGQGTQVTVSS,low polyreactivity
11,QVQLVESGGGLVQAGGSLRLICAASGFTFRVYSMGWYRQAPGKEREFVASISWTGDTTYYADSVKGRFTISRDNAKNTVYLQMNSLKPEDTEVYYCAVDTILGYDYWGQVTQVTVSS,low polyreactivity
12,QVQLVESGGGLVQAGGSLRLICAASGFTFYIYAMGWYRQAPGKERELVAAINFRGGSTYYADSVKGRFTLSRDNAKNTVYLQMNSLKPEDTAVYYCAAVPRTYSGYYYWGQGTKVTVSS,high polyreactivity
13,QVQLVESGGGLVQAGGSLRLICAASGFTIGPYAMGWSRQAPGKERELVAAITIRGGSTYADSVKGRFTISRDNAKNTVYFQMNSLKTEDTAVSYCATVRALEYNYWGQGTQVTVSS,low polyreactivity
14,QVQLVESGGGLVQAGGSLRLICAASGFTIVPNAMGWYRQAPGKERELVAAISRSTGGTYYADSVKGRFTISRDNAKNTVYLQMNSLKPEDTAVYYCAAEYWYWTYGMDYWGQGTQVTVSS,high polyreactivity
15,QVQLVESGGGLVQAGGSLRLICAASGFTIWWYAMGWYRQAPGKERELVATITSGGRTYYADSVKGRFTISRDNAKNTVYLQMNSLKPEDTAVYYCAAESEVGYVYDPMYYLGQGTQVTVSS,high polyreactivity
16,QVQLVESGGGLVQAGGSLRLICAASGGIFATYAMGWYRQAPGKEMELVAAITKRGGSTYYADSVKGRFTISRDNAKNTVYLQMNSLTPEDTAVYYCAAKGYRWFRLGGYYFKFDYWGQGTQVTVSS,high polyreactivity
17,QVQLVESGGGLVQAGGSLRLICAASGIIFDGNAMGWYRQAPGKERELVASITSDSSTNYADSVKGRFTISRDNAKNTVYLQMNSLKPEDTAVYYCAADHWIAPRRDYWGQGTQVTVSS,low polyreactivity
18,QVQLVESGGGLVQAGGSLRLICAASGIIFGGYDMGWYRQAPGKERELVAGIRSGGSTYYADSVKGRFTISRDNAKNTVYLQMNSLKPEDTAVYYCAKYVPIPYYSYLFGSYDYWGQGTQVTVSS,low polyreactivity
19,QVQLVESGGGLVQAGGSLRLICAASGIIFSSNAMGWSRQAPGKERELVAAISNTGRTNYADSVKGRFTISRDNAKNTVYLQLNSLKPEDTAVYYCAARLSRRYYSYYYWGQGTQVTVSS,high polyreactivity
20,QVQLVESGGGLVQAGGSLRLICAASGIIFTYNAMGWYRQAPGKERELVAAINGGSSTNYADSVKGRFTISRDNAKNTVYLQMNSLKPEDTAVYDCAADVIPDGVKKPRMYYWGQGTQVTVSS,low polyreactivity
21,QVQLVESGGGLVQAGGSLRLICAASGIIFVPNAMGWYSQAPGKERELVAAIDRGGGTTYADSVKGRFTISRDNAKNTVYLQMNSLKPEDTAVYYCAAAWGVGPDQGHDYWGQGTQVTVSS,low polyreactivity
